Data reported in US20240199730A1 (AstraZeneca / MedImmune, published 2024).

T1: N-terminally tagged biotinylated cyno TSLP (cynomolgus, UniProt A0A7N9CAT7 29-159, biotinylated (site not stated))
T1 construct: Captured on a streptavidin C1 chip in the Biacore assay; also called recombinant mammalian cell-expressed cyno TSLP; not shown: N-terminal tag
T1 sequence: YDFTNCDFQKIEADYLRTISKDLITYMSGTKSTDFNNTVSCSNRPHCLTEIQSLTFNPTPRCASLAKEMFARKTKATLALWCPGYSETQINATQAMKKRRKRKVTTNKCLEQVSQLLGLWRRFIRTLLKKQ

B1: cyno TSLP (ligand, cynomolgus)
chain: YDFTNCDFQKIEADYLRTISKDLITYMSGTKSTDFNNTVSCSNRPHCLTEIQSLTFNPTPRCASLAKEMFARKTKATLALWCPGYSETQINATQAMKKRRKRKVTTNKCLEQVSQLLGLWRRFIRTLLKKQ
notes: Cyno TSLP as used in solution in the KinExA assay; also called Cynomolgus TSLP
B2: Fab 1 (Fab, V domains shown)
VH: QMQLVESGGGVVQPGRSLRLSCAASGFTFRTYGMHWVRQAPGKGLEWVAVIWYDGSNKHYADSVKGRFTITRDNSKNTLNLQMNSLRAEDTAVYYCARAPQWELVHEAFDIWGQGTMVTVSS
VL: SYVLTQPPSVSVAPGQTARITCGGNNLGSKSVHWYQQKPGQAPVLVVYDDSDRPSWIPERFSGSNSGNTATLTISRGEAGDEADYYCQVWDSSSDHVVFGGGTKLTVLG
notes: The claims call it an IgG1 Fab; It was injected as monomerized Fab1 in the Biacore assay; also called anti-TSLP Fab

How the values were obtained:
Fab 1 [1] = target: B2; experiment: KinExA, cyno TSLP titrated into 1000 pM fixed Fab 1 (filled diamonds); free Fab 1 captured on hu TSLP-coated beads; the midpoint depends on the fixed Fab concentration
From the text: (§1) The KinExA methodology has been reviewed (Darling and Brault, 2004).
(§2) The KinExA software was used to calculate the equilibrium dissociation constant (KD).

Fab 1 [2] = target: B2; experiment: KinExA, cyno TSLP titrated into 40 pM fixed Fab 1 (open squares); free Fab 1 captured on hu TSLP-coated beads; the midpoint depends on the fixed Fab concentration
From the text: as §1, §2

cyno TSLP = target: B1; experiment: KinExA, solution phase; global 1:1 fit to two datasets
From the text: as §1, §2

[3] = target: T1, N-terminally tagged biotinylated cyno …; experiment: SPR, Biacore 8K; biotinylated TSLP on streptavidin C1 chip, Fab1 injected; 1:1 Langmuir model
Procedure: Streptavidin surfaces were prepared using lyophilized streptavidin that was reconstituted with D-PBS. Briefly, streptavidin was diluted to 4 μg mL-1 in 10 mM sodium acetate pH 4.5 and covalently immobilized to three flow cell surfaces of a S Series C1 biosensor chip by standard amine coupling methods. A final streptavidin surface of 170 response units (RUs) was achieved. The amine coupling reagents were also used to prepare a control blank surface, with no immobilized streptavidin, to serve as a reference surface within each flow cell. […] The low level of analyte binding ensured that mass-transport induced artefacts were minimized, especially when combined with the relatively fast, 50 μL min-1 assay flow-rates used during the kinetics measurement steps. […] Multiple buffer-only injections were made under the same conditions throughout the experiment to allow for double reference processing of the final sensorgram sets.
The chip surface was fully regenerated by flowing two 30 second pulses of 10 mM glycine pH 1.7. Binding affinity and kinetics were determined using 1:1 Langmuir model.

Binder	IC50 (read off the curve) (Fab 1 [1]) [nM]	IC50 (read off the curve) (Fab 1 [2]) [nM]	Kd (cyno TSLP) [nM]	Kd [3] [nM]
B1	~0.6	~0.04	–	–
B2	–	–	0.0136	0.0884
